For 1 substance, ECL value, % (relative ratio of measured value, control sample = 100%) and Difference from the blank (ECL value) results are on record in US20080199879A1.

For test [1], the target named is 15 L-β33-42 peptide+ruthenium complex-labeled polylysine-bound substance. In words: competitive electrochemiluminescence immunoassay, no competitor: labeled peptide composite (1 µg/ml) bound to bead-bound 21F12.
In test [2] the target is enzyme degradation product of the Aβ1-42 synthetic peptide (trypsin treated Aβ1-42 synthetic peptide). The experiment in a line: electrochemiluminescence double antibody sandwich; 21F12 beads, ruthenium-labeled 3D6 detection; trypsin-treated Aβ1-42 sample against untreated control.
Test [3] deals with Aβ1-42 synthetic peptide (produced by Peptide Institute, Inc.). In words: electrochemiluminescence double antibody sandwich; 21F12 beads, ruthenium-labeled 3D6 detection; untreated Aβ1-42 control sample.
Test [4] shares this target. In words: electrochemiluminescence double antibody sandwich; 21F12 on magnetic beads, ruthenium-labeled 3D6 detection; Aβ1-42 at 1 pg/mL.
Test [5] shares this target. In words: electrochemiluminescence double antibody sandwich; 21F12 on magnetic beads, ruthenium-labeled 3D6 detection; Aβ1-42 at 10 pg/mL.
The target of test [6] is enzyme degradation product of the Aβ1-42 synthetic peptide (trypsin treated Aβ1-42 synthetic peptide). In words: electrochemiluminescence double antibody sandwich; 21F12 beads, ruthenium-labeled 3D6 detection; trypsin-treated Aβ1-42 sample.
In test [7] the target is Aβ1-42 synthetic peptide (produced by Peptide Institute, Inc.). The experiment in a line: electrochemiluminescence double antibody sandwich; 21F12 on magnetic beads, ruthenium-labeled 3D6 detection; Aβ1-42 at 50 pg/mL.
In test [8] the target is 15 L-β33-42 peptide+ruthenium complex-labeled polylysine-bound substance. In words: competitive electrochemiluminescence immunoassay, no competitor: labeled peptide composite bound to bead-bound 21F12.
Test [9] has as its target Aβ1-42 synthetic peptide (produced by Peptide Institute, Inc.). In words: electrochemiluminescence double antibody sandwich; 21F12 on magnetic beads, ruthenium-labeled 3D6 detection; Aβ1-42 at 5 pg/mL.
Test [10] shares this target. The experiment in a line: electrochemiluminescence double antibody sandwich; 21F12 on magnetic beads, ruthenium-labeled 3D6 detection; Aβ1-42 at 0.5 pg/mL.
For test [11] the target is unchanged. The experiment in a line: electrochemiluminescence double antibody sandwich; 21F12 on magnetic beads, ruthenium-labeled 3D6 detection; Aβ1-42 at 25 pg/mL.
The target is the same in test [12]. The experiment in a line: electrochemiluminescence double antibody sandwich; 21F12 on magnetic beads, ruthenium-labeled 3D6 detection; Aβ1-42 at 100 pg/mL.
For test [13] the target is unchanged. In words: competitive electrochemiluminescence immunoassay, no competitor: ruthenium-labeled 21F12 (0.1 µg/ml) bound to bead-bound Aβ1-42.

Chain of 15 L-β33-42 peptide+ruthenium complex-labeled polylysine-bound substance (peptide, as listed by the source): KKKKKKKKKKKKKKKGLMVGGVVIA

Regarding “21F12 mouse monoclonal antibody (produced by Innogenetics Inc.)”, the ECL value came to 17000 in test [1]; 12800 in [3]; 1840 in test [4]; 22900 in test [5]; 1090 in [6]; 160000 in [7]. Moreover, the ECL value in test [8] was 18100; in test [9] it was 10800; in test [10], 1080; in [11] it was 75800; in test [12], 345000; in test [13], 34400. Moreover, the % (relative ratio of measured value, control sample = 100%) in [2] worked out at 9%. The Difference from the blank (ECL value) in test [4] turned out to be 1370; in test [5] it was 22400; in test [7] it was 160000; in test [9] it was 10300; in test [10], 614; in [11] it was 75300. For the same substance, the Difference from the blank (ECL value) in test [12] was 345000.
